{
  "source": "patent US20180057551A1",
  "about": "(AMYLONIX, published 2018)",
  "molecular_target": "T1, anti-ABD goat antibody (produced in-house)",
  "T1 construct": "also called Anti-ABD surface",
  "assay": "SPR Biacore 2000, periplasmic sample over immobilised anti-ABD goat antibody",
  "description": "A selection of Aβ peptide binding polypeptides was subjected to an analysis of the response against biotinylated hAβ₁₋₄₀ using a Biacore 2000 instrument (GE Healthcare). Biotinylated anti-ABD goat antibody (produced in-house) and N-terminally biotinylated hAβ₁₋₄₀ (AnaSpec cat. no. AS-24648) were immobilized in separate flow cells on a streptavidin coated chip (Biacore Sensor Chip SA, cat. no. BR100032) using HBS-EP as running buffer (0.01 M HEPES pH 7.4, 0.15 M NaCl, 3 mM EDTA, 0.005% v/v Surfactant P20, GE Healthcare, cat. no. BR100188). The ligand immobilization levels on the surfaces were approximately 2000 RU for the anti-ABD antibody and 225 RU for hAβ₁₋₄₀. One flow cell surface on the chip was used as blank during analyte injections. HBS-EP was used as running buffer and the flow rate was 25 μl/min. The analytes, i.e. periplasmic preparations of Aβ peptide binding polypeptides as described above, were each diluted 15× in HBS-EP buffer and injected for 10 min, followed by dissociation in running buffer for 5 min. After dissociation, the surfaces were regenerated with 2 pulses of 10 mM glycin pH 2.0. […]\nThe interactions of a subset of Z variants with anti-ABD goat antibody and hAβ₁₋₄₀ were analyzed in a Biacore instrument by injecting dilutions of periplasmic samples.",
  "data": [
    {"binder": "LAEAKVLANRELDKYGVSDYYKNLINNAKTVEGVKALIDEILAALP (other, periplasm containing ABD only; also called negative control; blank control)", "note": "[albumin binding domain GA3 from streptococcal Protein G (ABD), periplasmic control]", "values": [
      {"measurement": "Response RU", "value": 19.8, "unit": "RU"}
    ]}
  ]
}
